From patent publication US7445940

Target: human endoglin (human) (UniProt P17813)
Test: cell-based or functional assay

UniProt P17813, sequence (P17813 26-658): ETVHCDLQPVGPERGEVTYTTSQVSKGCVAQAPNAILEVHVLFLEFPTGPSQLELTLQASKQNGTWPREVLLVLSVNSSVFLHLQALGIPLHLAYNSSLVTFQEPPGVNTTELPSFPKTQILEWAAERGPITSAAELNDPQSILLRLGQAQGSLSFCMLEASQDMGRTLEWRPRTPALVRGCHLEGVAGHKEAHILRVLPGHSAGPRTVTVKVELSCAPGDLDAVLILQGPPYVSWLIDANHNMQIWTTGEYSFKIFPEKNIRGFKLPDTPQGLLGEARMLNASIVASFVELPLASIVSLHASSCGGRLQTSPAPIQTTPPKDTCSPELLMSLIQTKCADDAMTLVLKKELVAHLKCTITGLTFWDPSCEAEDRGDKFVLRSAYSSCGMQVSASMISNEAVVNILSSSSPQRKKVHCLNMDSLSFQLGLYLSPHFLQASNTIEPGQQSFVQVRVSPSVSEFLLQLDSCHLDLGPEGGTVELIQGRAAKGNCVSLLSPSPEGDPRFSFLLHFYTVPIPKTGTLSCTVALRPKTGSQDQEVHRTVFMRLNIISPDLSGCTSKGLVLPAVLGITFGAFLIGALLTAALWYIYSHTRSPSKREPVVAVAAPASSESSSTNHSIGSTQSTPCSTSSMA

- EVT outgrowth and migration (EVT outgrowths/villous tip), 24 h after addition (day 2 of culture) (EVT outgrowths/villous tip): 2.03
- concentration of maximal stimulation of EVT outgrowth: 1 µg/mL
- fibronectin (FN) synthesis by villous explants, fold increase relative to control: 8 fold
Substance: Murine monoclonal antibody (MAb) 44G4 specific for human endoglin
